Blank lines part the entries; values can stand above or below the binder they belong to. Bridge positions count the residues as written; N and C are the ends. Square brackets hold non-standard residues; d marks the D form. Nle = CCCC[C@H](N)C(=O)O; Dab = NCC[C@H](N)C(=O)O
Molecular target: human melanocortin-1 receptor hMCR-1 expressed by the human melanoma cell line HBL (human, UniProt Q01726 1-317)
Test: cell-based or functional assay

human melanocortin-1 receptor hMCR-1 expressed by the human melanoma cell line HBL, sequence (Q01726 whole entry): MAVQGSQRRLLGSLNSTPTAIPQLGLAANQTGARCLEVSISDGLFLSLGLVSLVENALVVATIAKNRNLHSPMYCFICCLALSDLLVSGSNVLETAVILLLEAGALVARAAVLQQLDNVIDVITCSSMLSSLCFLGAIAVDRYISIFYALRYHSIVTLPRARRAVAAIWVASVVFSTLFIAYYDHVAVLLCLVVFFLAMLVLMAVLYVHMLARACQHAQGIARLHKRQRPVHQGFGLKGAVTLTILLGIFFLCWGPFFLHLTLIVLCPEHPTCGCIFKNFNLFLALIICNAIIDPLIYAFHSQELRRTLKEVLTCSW

B3: Ac-Nle-cyclo(Glu-His-D-Phe-Gly-Dab)-Trp-NH2 (SEQ ID NO: 50) (peptide)
peptide: Ac-[Nle]EH[dF]G[Dab]W-NH2
modifications: lactam 2-6
SMILES: CCCC[C@H](NC(C)=O)C(=O)N[C@H]1CCC(=O)NCC[C@@H](C(=O)N[C@@H](Cc2c[nH]c3ccccc23)C(N)=O)NC(=O)CNC(=O)[C@@H](Cc2ccccc2)NC(=O)[C@H](Cc2c[nH]cn2)NC1=O
- MC-1 EC50 (average; cAMP HBL): 4 nM
- MC-1 Emax (average; cAMP HBL): 59%

B4: Ac-Nle-cyclo(Glu-His-D-Phe-Ala-Dab)-Trp-NH2 (SEQ ID NO: 51) (peptide)
peptide: Ac-[Nle]EH[dF]A[Dab]W-NH2
modifications: lactam 2-6
SMILES: CCCC[C@H](NC(C)=O)C(=O)N[C@H]1CCC(=O)NCC[C@@H](C(=O)N[C@@H](Cc2c[nH]c3ccccc23)C(N)=O)NC(=O)[C@H](C)NC(=O)[C@@H](Cc2ccccc2)NC(=O)[C@H](Cc2c[nH]cn2)NC1=O
- MC-1 EC50 (average; cAMP HBL): 0.115 nM
- MC-1 Emax (average; cAMP HBL): 72%

The remaining lines, values ahead:

- MC-1 Emax (average; cAMP HBL): 86%
B1: Ac-Nle-cyclo(Glu-Ala-D-Phe-Arg-Dab)-Trp-NH2 (SEQ ID NO: 52) (peptide)
peptide: Ac-[Nle]EA[dF]R[Dab]W-NH2
modifications: lactam 2-6

- MC-1 Emax (average; cAMP HBL): 100%
B2: Ac-Nle-cyclo(Glu-Arg-D-Phe-Arg-Dab)-Trp-NH2 (SEQ ID NO: 53) (peptide)
peptide: Ac-[Nle]ER[dF]R[Dab]W-NH2
modifications: lactam 2-6

— US20120225828A1 (PALATIN TECHNOLOGIES, published 2012)
